Test results as given in publication doi:10.1101/2025.02.03.636288.

Target: MBP-CARD9 (human) (UniProt Q9H257)
Assay: other fluorescence titration

Chain of MBP-CARD9 (human) (Q9H257 whole entry): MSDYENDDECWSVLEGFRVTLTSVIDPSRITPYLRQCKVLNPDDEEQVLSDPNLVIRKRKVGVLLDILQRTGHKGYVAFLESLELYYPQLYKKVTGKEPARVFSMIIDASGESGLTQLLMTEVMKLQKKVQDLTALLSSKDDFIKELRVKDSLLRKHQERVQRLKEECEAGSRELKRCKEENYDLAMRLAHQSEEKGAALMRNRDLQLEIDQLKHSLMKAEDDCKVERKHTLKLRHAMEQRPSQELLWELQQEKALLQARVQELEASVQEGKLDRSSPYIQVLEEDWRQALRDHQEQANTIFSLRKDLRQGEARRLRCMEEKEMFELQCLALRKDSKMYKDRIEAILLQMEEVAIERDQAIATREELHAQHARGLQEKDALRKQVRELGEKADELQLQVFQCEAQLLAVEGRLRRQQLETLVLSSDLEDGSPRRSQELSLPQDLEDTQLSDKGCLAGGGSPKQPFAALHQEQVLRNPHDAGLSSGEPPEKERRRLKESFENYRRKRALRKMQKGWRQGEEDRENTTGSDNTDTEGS

Kd: 0.3 µM
Substance: CK2 complex (New England Bio, P6010L) (from UniProt P68400 1-391; P67870 1-215)
